These results are taken from article PMC3197615.

Assay [1] deals with rat Ephrin A4 on transduced WOP cells (rat).
The target in assay [2] is mouse Ephrin A4 on transduced WOP cells (mouse) (UniProt O08542).
The target in assay [3] is human Ephrin A4 on transduced WOP cells (human) (UniProt P52798).
Sequence of UniProt P52798 (P52798 26-170): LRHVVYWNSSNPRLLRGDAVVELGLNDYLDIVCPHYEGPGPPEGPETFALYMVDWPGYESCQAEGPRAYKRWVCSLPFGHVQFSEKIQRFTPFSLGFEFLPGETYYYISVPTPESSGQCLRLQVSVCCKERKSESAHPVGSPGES

Sequence of UniProt O08542 (O08542 26-175): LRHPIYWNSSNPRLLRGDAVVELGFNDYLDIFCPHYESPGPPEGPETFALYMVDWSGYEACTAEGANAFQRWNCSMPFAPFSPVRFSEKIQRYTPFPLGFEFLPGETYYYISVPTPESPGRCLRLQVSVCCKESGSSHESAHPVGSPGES

Consider “IAPE Env (IAPE D2*) on transfected 293T cells (natural protein)”, for which the fold increase of the titre of IAPE Env pseudotypes over no-Env pseudotypes on transduced WOP cells (fold increase) in assay [1] came to 16; in assay [2], 16; in assay [3], 231.
